What was measured:
[1] = target: T1, DNTTIP1 (TdIF1), His-tagged (human, UniProt Q9H147 1-329); assay: fluorescence anisotropy; Hill n 1.89; error = fit SE x15; Anisotropy: 15 nM DNA, 10 mM Na-PO4 pH 6.5, 150 mM KCl, 250 uM TCEP, 5% glycerol. Pull-down: 20 mM HEPES pH 7.9, 100 mM KCl, 10% glycerol, 0.05% CHAPS, poly(dIdC), oligo B, acetylated BSA, room temperature; conditions: protein: recombinant; tags: N-term 6xHis; chain copies: 2; label: fluorescein on first T of sense strand (anisotropy only); blunt
T1 sequence: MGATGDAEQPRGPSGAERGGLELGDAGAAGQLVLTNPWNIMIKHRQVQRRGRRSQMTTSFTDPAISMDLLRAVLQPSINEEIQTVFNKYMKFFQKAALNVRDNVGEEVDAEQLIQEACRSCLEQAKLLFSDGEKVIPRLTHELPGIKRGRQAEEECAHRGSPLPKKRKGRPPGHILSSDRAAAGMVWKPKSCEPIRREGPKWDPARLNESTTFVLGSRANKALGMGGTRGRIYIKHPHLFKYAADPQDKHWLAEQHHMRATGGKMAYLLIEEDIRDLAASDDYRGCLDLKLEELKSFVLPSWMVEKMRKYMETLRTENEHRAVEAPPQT

[2] = target: T1, DNTTIP1 (TdIF1), His-tagged; assay: equimolar DNA; Tm 32.7 to 43.5 C; unit inferred, M assumed; Anisotropy: 15 nM DNA, 10 mM Na-PO4 pH 6.5, 150 mM KCl, 250 uM TCEP, 5% glycerol. Pull-down: 20 mM HEPES pH 7.9, 100 mM KCl, 10% glycerol, 0.05% CHAPS, poly(dIdC), oligo B, acetylated BSA, room temperature; conditions: protein: recombinant; tags: N-term 6xHis; chain copies: 2; label: fluorescein on first T of sense strand (anisotropy only); blunt
[3] = target: T1, DNTTIP1 (TdIF1), His-tagged; assay: fluorescence anisotropy; Hill n 2.39; error = fit SE x15; Anisotropy: 15 nM DNA, 10 mM Na-PO4 pH 6.5, 150 mM KCl, 250 uM TCEP, 5% glycerol. Pull-down: 20 mM HEPES pH 7.9, 100 mM KCl, 10% glycerol, 0.05% CHAPS, poly(dIdC), oligo B, acetylated BSA, room temperature; conditions: protein: recombinant; tags: N-term 6xHis; chain copies: 2; label: fluorescein on first T of sense strand; blunt
[4] = target: T1, DNTTIP1 (TdIF1), His-tagged; assay: fluorescence anisotropy; Hill n 1.78; error = fit SE x15; Anisotropy: 15 nM DNA, 10 mM Na-PO4 pH 6.5, 150 mM KCl, 250 uM TCEP, 5% glycerol. Pull-down: 20 mM HEPES pH 7.9, 100 mM KCl, 10% glycerol, 0.05% CHAPS, poly(dIdC), oligo B, acetylated BSA, room temperature; conditions: protein: recombinant; tags: N-term 6xHis; chain copies: 2; label: fluorescein on first T of sense strand; blunt
[5] = target: T1, DNTTIP1 (TdIF1), His-tagged; assay: CD thermal denaturation; equimolar DNA; unit inferred, M assumed; Anisotropy: 15 nM DNA, 10 mM Na-PO4 pH 6.5, 150 mM KCl, 250 uM TCEP, 5% glycerol. Pull-down: 20 mM HEPES pH 7.9, 100 mM KCl, 10% glycerol, 0.05% CHAPS, poly(dIdC), oligo B, acetylated BSA, room temperature; conditions: protein: recombinant; tags: N-term 6xHis; chain copies: 2; blunt
[6] = target: T1, DNTTIP1 (TdIF1), His-tagged; assay: equimolar DNA; Tm 39.2 C; unit inferred, M assumed; Anisotropy: 15 nM DNA, 10 mM Na-PO4 pH 6.5, 150 mM KCl, 250 uM TCEP, 5% glycerol. Pull-down: 20 mM HEPES pH 7.9, 100 mM KCl, 10% glycerol, 0.05% CHAPS, poly(dIdC), oligo B, acetylated BSA, room temperature; conditions: protein: recombinant; tags: N-term 6xHis; chain copies: 2; label: fluorescein on first T of sense strand (anisotropy only); blunt
[7] = target: T1, DNTTIP1 (TdIF1), His-tagged; assay: fluorescence anisotropy; Hill n 1.63; error = fit SE x15; Anisotropy: 15 nM DNA, 10 mM Na-PO4 pH 6.5, 150 mM KCl, 250 uM TCEP, 5% glycerol. Pull-down: 20 mM HEPES pH 7.9, 100 mM KCl, 10% glycerol, 0.05% CHAPS, poly(dIdC), oligo B, acetylated BSA, room temperature; conditions: protein: recombinant; tags: N-term 6xHis; chain copies: 2; label: fluorescein on first T of sense strand (anisotropy only); blunt

B1: TASHET_25 wt (dsDNA)
DNA 1: AGATGCTGCATATAAGCAGCTGCTT
DNA 2: AAGCAGCTGCTTATATGCAGCATCT
B1 gave a Kd [1] of 51.1 ± 4.2 nM and a Kd [2] of roughly 0.392 nM.

B2: CATAKO_25 (dsDNA)
DNA 1: AGATGCTGAGAGCTCGCAGCTGCTT
DNA 2: AAGCAGCTGCGAGCTCTCAGCATCT
In the case of B2, the Kd [3] is reported as 117 ± 15.6 nM.

B3: Scr_25 (dsDNA)
DNA 1: AGATCAGCAGAGCTCTGGTAGCTAT
DNA 2: ATAGCTACCAGAGCTCTGCTGATCT
In the case of B3, the Kd [4] is reported as 156 ± 15.6 nM.

B4: DNTTIP_cons (dsDNA)
DNA 1: CGCCAAATAAAAGTTGCATGGTCG
DNA 2: CGACCATGCAACTTTTATTTGGCG
B4 showed a Kd [5] of roughly 7.38 nM.

B5: ATCC_25 (dsDNA)
DNA 1: AGATGATCCATATAAGGATATCCTT
DNA 2: AAGGATATCCTTATATGGATCATCT
In the case of B5, the Kd [6] is reported as roughly 791 nM and the Kd [7] is reported as 137 ± 16.6 nM.

Source: PMC11115230, “Mitotic deacetylase complex (MiDAC) recognizes the HIV-1 core promoter to control activated viral gene expression”
